The record followed here is patent US12533409B2, “Compositions and methods for targeting mutant RAS” (The Trustees of the University of Pennsylvania, priority 2019, dated 2026).

One assay addresses HLA-B*07:02 (Homo sapiens, UniProt P01889). As to the kind of experiment: HLA class I immunoprecipitation peptide elution and tandem Mass Spec (MS/MS), monoallelic K562 RAS TMG cell lines. It counts as cell-based. The arrangement: expressed in transfected cells; host or cells: K562, lentiviral HLA construct plus RAS tandem minigene construct. The conditions noted are these: B*07:02-restricted; antigen processing/presentation. An excerpt: (§1) Additional antigen processing and presentation studies were done using mass spectrometry. First, monoallelic K562 cell lines were created to express specific HLA types (FIG. 7A). Further, lentiviral constructs expressing various wt RAS and mRAS peptides were generated (FIG. 7E). Monoallelic cell lines that express specific HLA types and the various RAS and mRAS peptides were then created. The expression of HLA class I and HLA-specific expression of RAS TMG cells lines were verified by FACS (FIG. 7C and FIG. 7D).
(§2) Further, novel epitopes are identified for HLA-B*07:02.

Assay [1] concerns the target T1, HLA-A*11:01 (Homo sapiens, UniProt P04439, A114D/D185E/E176A/F33Y/L180Q/S129P/T187R). As to the kind of experiment: Competitive peptide binding fluorescence polarization assay. Conditions: peptide-MHC binding; strong binding affinity indicated by log[IC50]<3.7 (FIG. 6A). As for the experimental part: Experiments were also conducted to examine peptide-MHC binding.
(In general: Polarisation of emitted light reports the rotation of a fluorescent probe.)

The target in assay [2] is T1, HLA-A*11:01. As to the kind of experiment: HLA class I immunoprecipitation peptide elution and tandem Mass Spec (MS/MS), monoallelic K562 RAS TMG cell lines. Also noted: expressed in transfected cells; host or cells: K562, lentiviral HLA construct plus RAS tandem minigene construct. It counts as cell-based. Conditions: A*11:01-restricted; antigen processing/presentation.
Excerpt: as §1, §2

The next assay addresses HLA-A*03:01 (Homo sapiens, UniProt P04439). The description is as above. It counts as cell-based. The arrangement: expressed in transfected cells; host or cells: K562, lentiviral HLA construct plus RAS tandem minigene construct. The conditions noted are these: A*03:01-restricted; antigen processing/presentation.
Excerpt: as §1, §2

Take “GADGVGKSAL (GA_D) [mRAS peptide, G12D, HLA-B*07:02]”: in the assay with HLA-B*07:02, the “detection of mRAS epitope by HLA class I immunoprecipitation peptide elution and MS/MS” value (shortened to “detection of mRAS epitope”) is recorded as “identified new epitopes”.
As to VVGACGVGK [VV_C], in the assay with HLA-A*11:01 [1], the “binding affinity of mRAS neoepitope for HLA-A*11:01” value (shortened to “binding affinity of mRAS neoepitope”) is “high binding affinity”.
Regarding VVGADGVGK [VV_D], the “detection of mRAS epitope” value with HLA-A*11:01 [2] is reported as “detection”. Further, in the assay with HLA-A*11:01 [1], the “binding affinity of mRAS neoepitope” value is recorded as “high binding affinity”.
In the case of “VVGARGVGK (VV_R) [mRAS peptide, G12R, HLA-A*03:01 and HLA-A*11:01]”, the “detection of mRAS epitope” value in the assay with HLA-A*03:01 and with HLA-A*11:01 [2] was “detection” each time. For the same sequence, in the assay with HLA-A*11:01 [1], the “binding affinity of mRAS neoepitope” value is “high binding affinity”.
Take VVVGADGVGK [VVV_D]: the “detection of mRAS epitope” value with HLA-A*03:01 and with HLA-A*11:01 [2] was “detection” in each case. Further, the “binding affinity of mRAS neoepitope” value with HLA-A*11:01 [1] is given as “high binding affinity”.
